The assay concerns the target Interleukin-1 receptor 1 on human umbilical vein endothelial cells (human (endogenous in HUVEC)) (UniProt P14778).
Sequence of UniProt P14778 (P14778 18-569): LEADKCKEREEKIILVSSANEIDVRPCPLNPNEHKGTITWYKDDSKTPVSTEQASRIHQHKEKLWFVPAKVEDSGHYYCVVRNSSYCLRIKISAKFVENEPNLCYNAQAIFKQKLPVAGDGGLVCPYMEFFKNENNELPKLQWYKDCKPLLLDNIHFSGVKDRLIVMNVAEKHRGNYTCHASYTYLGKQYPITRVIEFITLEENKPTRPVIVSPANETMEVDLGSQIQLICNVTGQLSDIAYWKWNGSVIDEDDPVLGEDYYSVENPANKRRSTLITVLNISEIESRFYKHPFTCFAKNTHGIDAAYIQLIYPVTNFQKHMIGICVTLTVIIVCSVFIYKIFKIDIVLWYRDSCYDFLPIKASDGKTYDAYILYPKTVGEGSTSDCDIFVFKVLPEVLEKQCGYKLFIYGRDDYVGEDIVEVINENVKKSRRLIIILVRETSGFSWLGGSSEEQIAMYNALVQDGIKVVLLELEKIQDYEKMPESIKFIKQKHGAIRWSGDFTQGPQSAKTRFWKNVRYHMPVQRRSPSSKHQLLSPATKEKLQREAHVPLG

In the case of “cell-surface Interleukin-1α on human primary monocytes (from UniProt P01583 113-271) (ligand)”, the percent VCAM1-positive HUVECs (flow cytometry) after 4h with unstimulated monocytes (% VCAM pos. cells) came out at 2.5; the percent VCAM1-positive HUVECs (flow cytometry) after 4h with upLPS-stimulated monocytes (% VCAM pos. cells) was 25.9; the percent VCAM1-positive HUVECs (flow cytometry) after 4h with upLPS-stimulated monocytes, HUVECs pre-treated 1h with neutralizing IL1R1 antibody (10 µg/ml, AB-269-NA, R&D Systems) (% VCAM1 pos. cells) came out at 18.6; the percent adhesion of calcein-labeled, LPS-pre-stimulated monocytes to HUVECs (remaining fluorescence after washing) was 6.7%. Besides, the percent adhesion of calcein-labeled, non-stimulated monocytes to HUVECs (remaining fluorescence after washing) is 3.5%.

Source of the values: article PMC10494239.
